From patent publication US20240261427A1, “LINKERS, DRUG LINKERS AND CONJUGATES THEREOF AND METHODS OF USING THE SAME” (ProfoundBio US Co., priority 2021, published 2024)

System: Hela cells
Experiment: Flow cytometry binding to Hela cells
Type: cell-based, human
Conditions: transfection supernatant, FIG. 6
Procedure: The binding activity of the antibodies to Hela cells (ATCC® CCL-2, provided by COBIOER) and to RPTEC/TERT1 cells (ATCC® CRL-4031, provided by COBIOER) was tested by flow cytometry using the transfection supernatants. Briefly, target cells were digested with 0.02% EDTA-2Na, centrifuged at 1500 rpm for 3 mins, and resuspended with PBS. After counting, the cells were added to a 1.5 ml centrifuge tube with 1×10^6 cells per tube, centrifuged at 1500 rpm for 5 minutes, and the supernatant was discarded. Then all the operations were carried out on an ice bath. 100 μL of transfection supernatant was added to each 1.5 ml centrifuge tube. Blank cells, blank cells plus secondary antibody, medium and HEK293 supernatant were set up as the controls. The reaction was performed on an ice bath for 1 hour. Then the cells were pelleted and washed twice with PBS. The secondary antibody, goat anti-Human IgG (PE, abcam, ab98596), was diluted (1:200) and added using 100 μL per tube. The reaction was performed on an ice bath for 1 hour in the dark. The cells were pelleted again and washed twice with PBS, resuspended in 300 μL PBS, and FL2 fluorescence readings were measured by cytometry. The results were analyzed by FlowJo™10 software.
Anti-FOLR1 antibody binding to Hela and RPTEC/TERT1 cells was tested by FACS. The study was carried out as described above. […]

B1: F40: anti-FOLR1 antibody clone; "Clone F40 has a different HCDRs and LCDRs, and with different HFR and LFR" (antibody, V domains shown)
VH: EVQLLESGGGVVQPGRSLRLSCAASGFTFSSYAMHWVRQAPGKGLEWVAVISYDGSNKYYADSVKGRFIISRDNSKNTVYLQMNSLRAEDTAVYYCARPTYVFTYTGSSFDYWGQGTQVTVSS
VL: DIQVTQSPSSLSASLGDTVSITCRASRGLTDSVAWYQQKPGQAPKLLIYAASTLQSGVPSRFGGSGSGSYFTLTITSLQPEDVATYYCQNYKSAPWTFGQGTKVEIK
Hela cell binding: weakly positive
